This note sets out measurements from paper PMC2172020.

As usually defined, the stoichiometry N is a count of units in the complex or per binding partner.

This assay addresses HIS-CLIP-170 (rat) (UniProt Q9JK25). Description: scanning force microscopy.

With “HIS-CLIP-170 (from UniProt Q9JK25 1-1320) (natural protein)”, the stoichiometry N came out at 2.
